In US20200197547A1 (INSERM INSTITUT NATIONAL DE LA SANT ET DE LA RECHERCHE M …, published 2020):

B1: 99mTc-A1 (anti-mesothelin A1 single domain antibody radiolabeled with technetium-99m at its C-terminal hexahistidine tag) (VHH)
VHH: QVQLVQSGGGLVHPGGSLRLSCAASGIDLSLYRMRWYRQAPGKERDLVALITDDGTSYYEDSVKGRFTITRDNPSNKVFLQMNSLKPEDTAVYYCNAETPLSPVNYWGQGTQVTVSH
modifications: 99mTc-tricarbonyl at the C-terminal hexahistidine-tag (His-Tag)
notes: Labeled by the tricarbonyl method; also called radiolabeled A1 nanobody
B2: A1 anti-mesothelin single domain antibody, unlabeled (VHH)
VHH: B1 VHH
notes: Same protein as in m1, without the radiolabel; also called unlabeled A1; A1 nanobody

How the values were obtained:
[1] = biological target: T1, Human MSLN recombinant protein (R&D systems) (human, UniProt Q13421 296-580, limits assumed); experiment: saturation radioligand binding on recombinant human MSLN (as told in the discussion); value told in the discussion; recombinant human MSLN
T1 construct: Bought protein, 100 ng immobilized on immunosorbent plates; also called recombinant MSLN; recombinant human mesothelin
T1 sequence (Q13421 other isoform, or with tags, fused parts or gaps limits assumed): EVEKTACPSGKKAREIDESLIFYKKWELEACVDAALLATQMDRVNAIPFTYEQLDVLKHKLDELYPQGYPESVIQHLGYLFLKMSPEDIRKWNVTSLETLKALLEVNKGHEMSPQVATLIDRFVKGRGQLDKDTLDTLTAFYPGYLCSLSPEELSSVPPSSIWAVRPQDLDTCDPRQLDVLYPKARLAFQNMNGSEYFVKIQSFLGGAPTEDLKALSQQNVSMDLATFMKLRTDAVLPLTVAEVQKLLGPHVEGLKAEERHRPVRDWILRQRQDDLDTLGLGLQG
Protocol: (§1) Human MSLN recombinant protein (100 ng, R&D systems) was immobilized on immunosorbent plates (Corning Costar Stripwell, Sigma Aldrich) overnight at 4° C., and blocked with 1% milk. Serial dilutions of ^99mTc-A1 and ^99mTc-C6 from 1 μM to 0.8 nM were incubated for 1 hour. Unbound activity was removed by 5 serial washes with PBS-Tween 0.1%. The radioactivity in each well was determined using a γ-counter (Wizard², Perkin Elmer). Unspecific binding was determined by incubation of ^99mTC-A1 or ^99mTc-C6 in empty wells. Results were corrected from background and decay, and the [^99mTc-A1] and [^99mTc-C6] binding curves were fitted using a nonlinear regression equation (specific binding: Y=B max*X/(KD+X) with X being the radioligand concentration) and using GraphPad Prism 6 software to determine KD values. Uptake was normalized to the Bmax for graphic representation of 3 independent experiments.

[2] = biological target: T1, Human MSLN recombinant protein (R&D …); experiment: saturation radioligand binding on plate-immobilized recombinant human MSLN, gamma counting, nonlinear fit
Protocol: as §1

[3] = biological target: T2, Mesothelin (MSLN) on MSLN-positive HCC70 human triple negative breast cancer cells (human, UniProt Q13421 296-598); experiment: cell-based or functional assay
T2 sequence (Q13421 other isoform, or with tags, fused parts or gaps limits assumed): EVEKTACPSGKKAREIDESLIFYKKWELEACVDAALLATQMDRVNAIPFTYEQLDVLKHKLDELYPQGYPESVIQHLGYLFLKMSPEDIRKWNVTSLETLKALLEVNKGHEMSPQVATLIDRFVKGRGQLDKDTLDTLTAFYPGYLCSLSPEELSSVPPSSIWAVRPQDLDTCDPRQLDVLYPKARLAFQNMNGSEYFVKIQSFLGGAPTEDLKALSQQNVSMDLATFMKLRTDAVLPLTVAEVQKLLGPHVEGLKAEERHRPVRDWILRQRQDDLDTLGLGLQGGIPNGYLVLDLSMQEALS

[4] = biological target: T2, Mesothelin (MSLN) on MSLN-positive …; experiment: radioligand binding on cells in suspension, 40 nM 99mTc-A1, 1 h at 4 C, gamma counting
Protocol: (§2) HCC70 and MDA-MB-231 cells were rinsed with PBS, detached using EDTA 5 mM, and resuspended at 200,000 cells per tube. Cells were incubated for 1 hour with PBS-BSA 1% and then with 40 nM of ^99mTc-A1 or 150 nM of ^99mTc-C6 for 1 h at 4° C., in the absence or presence of a 200-fold excess of unlabeled A1 or C6. Cell suspensions were centrifuged at 400 g during 5 min at 4° C., and washed 5-times with cold-PBS. Cells were then transferred to new tubes and radioactivity was determined using a γ-counter (Wizard², Perkin).

[5] = biological target: T1, Human MSLN recombinant protein (R&D …); experiment: saturation radioligand binding on plate-immobilized recombinant human MSLN
Protocol: as §1

[6] = biological target: T2, Mesothelin (MSLN) on MSLN-positive …; experiment: competition on HCC70 cells, 200-fold excess of unlabeled A1 against 40 nM 99mTc-A1 (competitor: 99mTc-A1)
Protocol: as §2

| Binder | Kd [1] | Kd [2] | 99mTc-A1 uptake in HCC70 tumors by SPECT quantification, with competition (150-fold excess of unlabeled A1) [3] | fold decrease in 99mTc-A1 uptake in HCC70 tumors by SPECT quantification, co-injection of a 150-fold excess of unlabeled A1 [3] | fold decrease in 99mTc-A1 uptake in HCC70 tumors, ex vivo biodistribution, with excess of unlabeled A1 [3] | fold binding on HCC70 cells against MSLN-negative MDA-MB-231 cells [4] | fold affinity against 99mTc-C6 [5] | fold decrease in 99mTc-A1 binding to HCC70 cells [6] |
| --- | --- | --- | --- | --- | --- | --- | --- | --- |
| B1 | 35 nM | 43.9 nM | 0.6 % ID/g | ~7 fold | ~7 fold | 7.9 fold | > 2 fold | – |
| B2 | – | – | – | – | – | – | – | 6 fold |
